Where only a bound is given, the exact number is not on record here.

We go through 17 molecules from patent publication US20210340524A1 (MIT, published 2021).

For assay [1], the target named is T1, FMC63 IgG.
T1 construct: biotinylated in the flow cytometry assays; also called FMC63 IgG antibody; biotinylated FMC63 IgG
Nature of the assay: flow cytometry of yeast clones stained with 5 µM FMC63 IgG, tolerance of extra alanine residues. The procedure: (§1) To determine the effect of amino acid position on binding to FMC63, an alanine mutagenesis experiment was performed were each amino acid was mutated to alanine and binding to FMC63 was assessed. Specifically, a representative mimotope, […] To assess the tolerance of additional alanine residues, one alanine or two alanine residues were inserted between the two cysteine residues (SEQ ID NOs: 52 and 53) to determine the impact the loop structure had on mimotope binding to FMC63. To generate mutations, two complementary oligos with the codon replaced at the desired site were denatured at 95° C. and annealed by slow cooling to 25° C. (decreasing by 0.5° C./second). The annealed oligos were treated with T4 PNK (T4 Polynucleotide Kinase) to add a terminal phosphate, and then ligated into digested pCT-CON2 vector. Positive clones having the correct oligo inserted were tested and transformed into competent EBY100 yeast cells. Following generation of mutated clones, flow cytometry was performed by staining the yeast with 5 μM FMC63 IgG antibody to measure binding of the mimotope (FIG. 11).
A general note: Flow cytometry measures light scatter and fluorescence of single cells or particles in a stream.

Assay [2] has as its target T2, anti-mCD19 IgG (clone 1D3).
T2 construct: Anti-mouse CD19 IgG; also called 1D3 IgG; biotinylated 1D3 antibody
In words: ELISA, titration with anti-mCD19 (1D3) IgG, OD(450nm); value printed beside the square curve. On the technique in general: ELISA stands for enzyme-linked immunosorbent assay.

The target in another assay is T3, FMC63 scFv (biotinylated).
T3 construct: also called biotinylated FMC63 scFv; FMC63-scFv monomer
In words: flow cytometry of yeast clones, titration with biotinylated FMC63 scFv and streptavidin-PE, MFI (geometric mean). The procedure: The binding affinity of the isolated yeast clones to FMC63 was determined.

Assay [3] concerns the target T1, FMC63 IgG. Nature of the assay: flow cytometry (MFI), yeast clone titrated with 0.01-1000 nM biotinylated FMC63 IgG. An excerpt: (§2) In order to validate specific sequences, clones were isolated and measured for their affinity to FMC63. Specifically, a subset of mimotope clones were selected from the fixed library sequence described in Example 5.
For assay [4], the target named is T1, FMC63 IgG. Nature of the assay: flow cytometry (MFI), yeast clone titrated with 0.01-1000 nM biotinylated FMC63 IgG; yeast-displayed clone, FACS titration 0.01-1000 nM biotinylated FMC63 IgG.
Excerpt: as §2

Assay [5] concerns the target T2, anti-mCD19 IgG (clone 1D3). In words: ELISA, titration with anti-mCD19 (1D3) IgG, OD(450nm); value printed beside the circle curve.
Assay [6] has as its target T2, anti-mCD19 IgG (clone 1D3). In words: ELISA, titration with anti-mCD19 (1D3) IgG, OD(450nm); value printed beside the triangle curve.
Assay [7] concerns the target T1, FMC63 IgG. Nature of the assay: ELISA with FMC63 IgG; ELISA, not FACS titration. The procedure: Next, the affinity of the […] (SEQ ID NO: 5) mimotope to FMC63 was determined.
Assay [8] has as its target T1, FMC63 IgG. Nature of the assay: flow cytometry of yeast clones stained with 5 µM FMC63 IgG, alanine scan. The procedure:
as §1

Assay [9] has as its target T1, FMC63 IgG. In words: flow cytometry of yeast clones, titration with 0.01-1000 nM biotinylated FMC63 IgG, MFI (geometric mean).
Excerpt: as §2

T2 sequence (VH, as listed by the source, chain 1 of 2): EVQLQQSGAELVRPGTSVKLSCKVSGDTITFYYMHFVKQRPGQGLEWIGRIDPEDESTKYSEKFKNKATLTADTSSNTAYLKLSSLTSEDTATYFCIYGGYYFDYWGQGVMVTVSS
T2 sequence (VL, as listed by the source, chain 2 of 2): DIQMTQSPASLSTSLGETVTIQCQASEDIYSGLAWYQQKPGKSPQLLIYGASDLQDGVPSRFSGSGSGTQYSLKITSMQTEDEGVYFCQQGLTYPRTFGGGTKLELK
T1 sequence (VH, as listed by the source, chain 1 of 2): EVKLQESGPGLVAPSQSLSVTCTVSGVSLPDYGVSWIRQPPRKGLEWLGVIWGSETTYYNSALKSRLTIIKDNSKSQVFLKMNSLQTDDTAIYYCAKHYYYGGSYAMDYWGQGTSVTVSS
T1 sequence (VL, as listed by the source, chain 2 of 2): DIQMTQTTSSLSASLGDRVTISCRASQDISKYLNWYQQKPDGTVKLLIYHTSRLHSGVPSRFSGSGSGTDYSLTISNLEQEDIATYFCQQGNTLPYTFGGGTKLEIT
T3 sequence (scFv, as listed by the source): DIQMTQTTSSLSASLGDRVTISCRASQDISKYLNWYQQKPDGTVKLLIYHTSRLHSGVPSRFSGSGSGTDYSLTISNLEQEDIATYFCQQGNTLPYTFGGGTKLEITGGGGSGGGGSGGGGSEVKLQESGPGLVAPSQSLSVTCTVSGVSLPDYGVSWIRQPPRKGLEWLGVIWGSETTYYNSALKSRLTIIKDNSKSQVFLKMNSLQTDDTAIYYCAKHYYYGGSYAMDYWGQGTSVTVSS

B1: FMC63 Mimotope Mutant RLCPWSAACREL (SEQ ID NO: 52), yeast-displayed (peptide)
peptide: RLCPWSAACREL
notes: also called two alanine residues inserted between the two cysteine residues
For B1, the binding result with FMC63 IgG [1] was “no binding (tested: 5 µM)”.

B2: 1D3 Mimotope Multimer H1 + C11 (SKLKGKSGPEFHWFINVPPF) (peptide)
peptide: SKLKGKSGPEFHWFINVPPF
notes: Chemically synthesized 20 amino acid fusion of two mimotopes; also called fusion mimotope
Broadly, the Kd is the equilibrium constant for the complex coming apart. The molecule B2 gave a Kd in [2] of 102 nM.

B3: FMC63 Mimotope Mutant RLCPWSACREL (SEQ ID NO: 53), yeast-displayed (peptide)
peptide: RLCPWSACREL
notes: also called one alanine inserted between the two cysteine residues
Regarding B3, the binding result in the assay with FMC63 IgG [1] was “no binding (tested: 5 µM)”.

The EC50 (read off the curve) is the concentration needed to bring the measured effect to its halfway point. A higher EC50 (read off the curve) goes with lower potency in that assay. Regarding RICPWNCKELPSPPRIFGNR [K-C2 mimotope, yeast-displayed], the “EC50 (read off the curve)” value in the assay with FMC63 scFv is around 10 nM.

For RICPWNCKEL (also called F12 mimotope) [FMC63 Mimotope(F12), yeast-displayed], in the assay with FMC63 scFv, the “EC50 (read off the curve)” value is around 40 nM.

RICPWSCRAP [FMC63 Mimotope (D12), yeast-displayed] returned a Kd with FMC63 IgG [3] above 1000 nM.

Regarding RHCPWNCSLL [FMC63 Mimotope (A1), yeast-displayed], the dissociation constant (Kd) in the assay with FMC63 IgG [4] is above 1000 nM.

In the case of SKLKGKSGPE (also called 10 amino acid mimotope) [1D3 mimotope H1 (SKLKGKSGPE) as used in the ELISA of FIG. 13], binding in assay [5] was characterised by a dissociation constant (Kd) of 190 nM.

B4: 1D3 Mimotope Multimer H1 + E2 (SKLKGKSGPEIRVLMSRVFA) (peptide)
peptide: SKLKGKSGPEIRVLMSRVFA
notes: as for B2
In assay [6], B4 showed an equilibrium dissociation constant (Kd) of 6.7 nM.

RHCPWNCSLL [high-affinity mimotope RHCPWNCSLL (SEQ ID NO: 5) as used in the ELISA of FIG. 7] gave a Kd with FMC63 IgG [7] of around 1400 nM.

On to ALCPWSCREL (also called alanine at R1 (position 1)), for which the binding result with FMC63 IgG [8] was “no binding (tested: 5 µM)”.

Take RLCPASCREL (also called alanine at W5 (position 5)): in the assay with FMC63 IgG [8], the binding result is reported as “no binding (tested: 5 µM)”.

As for RLCAWSCREL (also called alanine at P4 (position 4)), the binding result with FMC63 IgG [8] is on record as “no binding (tested: 5 µM)”.

RLAPWSCREL (also called alanine at C3 (position 3)): the binding result with FMC63 IgG [8] was “no binding (tested: 5 µM)”.

With RLCPWSAREL (also called alanine at C7 (position 7)), the binding result with FMC63 IgG [8] was “no binding (tested: 5 µM)”.

Regarding RLCPWDCREL [FMC63 Mimotope(F8), yeast-displayed], in the assay with FMC63 IgG [9], the “EC50 (read off the curve)” value was around 10 nM.

Take RICPWACVEL [FMC63 Mimotope(H8), yeast-displayed]: the “EC50 (read off the curve)” value with FMC63 IgG [9] was around 8 nM.
